Patent publication US20210206855A1 (ADAGENE, published 2021)
Positions count from the first letter of the chain named.

T1: recombinant human CTLA4-Fc (Sino Biological, 11159-H03H) (human, UniProt P16410 37-162)
T1 construct: bought; whole entry named; Biotinylated in the yeast display assays; also called human CTLA4 fused with human FC fragment; biotinylated CTLA4-Fc; not shown: human Fc fragment
T1 sequence (looked up): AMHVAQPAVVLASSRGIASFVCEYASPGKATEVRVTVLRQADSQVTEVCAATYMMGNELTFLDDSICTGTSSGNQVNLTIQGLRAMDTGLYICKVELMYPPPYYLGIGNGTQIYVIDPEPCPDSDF

T2: cynomolgus monkey CTLA4 antigen fused with human FC fragment (cynomolgus monkey, UniProt G7PL88 36-161, fused to a human Fc fragment that is not in the letters)
T2 sequence: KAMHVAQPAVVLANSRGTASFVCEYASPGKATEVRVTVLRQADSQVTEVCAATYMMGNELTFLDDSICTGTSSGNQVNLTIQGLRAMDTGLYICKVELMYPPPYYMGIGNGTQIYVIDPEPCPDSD

B1: TY22566 (antibody, IgG1, V domains shown)
VH: EVQLVESGGGLVQPGGSLRLSCAASGYSISSGYHWSWIRQAPGKGLEWLARIDWDDDKYYSTSLKSRLTISRDNSKNTLYLQLNSLRAEDTAVYYCARSYVYFDYWGQGTLVTVSS
VL: EVGSYPNPASDCVPYYYACAYSGRSAGGGGSPLGLAGSGGSDIQLTQSPSSLSASVGDRVTITCRASQSVRGRFLAWYQQKPGKAPKLLIYDASNRATGIPSRFSGSGSGTDFTLTISSLQPEDFATYYCQQSSSWPPTFGQGTKVEIKR
B2: TY22563 (antibody, IgG1, V domains shown)
VH: B1 VH
VL: EVGSYYSAYPACDSHYPYCQSSGRSAGGGGSPLGLAGSGGSDIQLTQSPSSLSASVGDRVTITCRASQSVRGRFLAWYQQKPGKAPKLLIYDASNRATGIPSRFSGSGSGTDFTLTISSLQPEDFATYYCQQSSSWPPTFGQGTKVEIKR
B3: TY22564 (antibody, IgG1, V domains shown)
VH: B1 VH
VL: B2 VL with Q20N, S22A
B4: TY22402 (antibody, IgG1, V domains shown)
VH: B1 VH
VL: B2 VL with Y6I, S7V, A8H, Y9H, P10S, A11D, S14A, H15F, Q20D
notes: also called masking peptide B13180
B5: TY22401 (antibody, V domains shown)
VH: B1 VH
VL: EVGSYNFVADSCPDHPYPCSASGRSAGGGGSPLGLAGSGGSDIQLTQSPSSLSASVGDRVTITCRASQSVRGRFLAWYQQKPGKAPKLLIYDASNRATGIPSRFSGSGSGTDFTLTISSLQPEDFATYYCQQSSSWPPTFGQGTKVEIKR
notes: peptide fused to the N-terminus of the light chain; also called masking peptide B13189
B6: TY22565 (antibody, IgG1, V domains shown)
VH: B1 VH
VL: B1 VL with N7Q, A9S
B7: B15722 (Fab, V domains shown)
VH: EVQLVESGGGLVQPGGSLRLSCAASGFTFSDYGIHWVRQAPGKGLEWIGEIYHSGSTYYSPSLKSRVTISRDNSKNTLYLQLNSLRAEDTAVYYCARDVAPGSSGYYDGFDFWGQGTLVTVSS
VL: DIQLTQSPSSLSASVGDRVTITCRASQGIGSSLAWYQQKPGKAPKLLIYDASNRATGIPSRFSGSGSGTDFTLTISSLQPEDFATYYCQQYDQWPPWTFGQGTKVEIKR
notes: Fab hit from E. coli
B8: B15740 (Fab, V domains shown)
VH: EVQLVESGGGLVQPGGSLRLSCAASGFTFSDYWIHWVRQAPGKGLEWIGWISPSGGGTKYAQKFQGRVTISRDNSKNTLYLQLNSLRAEDTAVYYCARGAYEFDYWGQGTLVTVSS
VL: DIQLTQSPSSLSASVGDRVTITCRASQSVSSRFLAWYQQKPGKAPKLLIYDASNRATGIPSRFSGSGSGTDFTLTISSLQPEDFATYYCQQSYPTPLTFGQGTKVEIKR
notes: Fab hit from E. coli

Experiments:
[1] = biological target: T1, recombinant human CTLA4-Fc (Sino …); assay: ELISA, coated human CTLA4-Fc, batch 2
Procedure: (§1) Plates were blocked with PBS supplemented with 3% non-fat milk at 37° C. for 1 hour. After washing, 100 μL of 3-fold serial dilutions of antibodies were added to each well. After incubation at 37° C. for 1 hour, plates were washed four times, and […] conjugated anti-human IgG (Fab specific) (1:6000 dilution) was added to each well. Plates were incubated at 37° C. for 1 hour, washed four times, and then 50 μL TMB substrate solution was added to each well, and the plate was incubated at room temperature. […] The EC₅₀ was evaluated by fitting the ELISA data using the asymmetrical sigmoidal (five-parameter logistic equation) model of GraphPad Prism 6 software.

[2] = biological target: T1, recombinant human CTLA4-Fc (Sino …); assay: ELISA, coated human CTLA4-Fc, batch 1
Procedure: as §1

[3] = biological target: T2, cynomolgus monkey CTLA4 antigen fused …; assay: ELISA, captured Fab

| Binder | EC50 [1] | LogEC50 [1] | EC50 [2] | LogEC50 [2] | binding result [3] |
| --- | --- | --- | --- | --- | --- |
| B1 | 163 nM | -6.79 log M |  |  |  |
| B2 | 47.7 nM | -7.32 log M |  |  |  |
| B3 | 39 nM | -7.41 log M |  |  |  |
| B4 | 125 nM | -6.9 log M | 478 nM | -6.32 log M |  |
| B5 | 15.9 nM | -7.8 log M | 23.8 nM | -7.62 log M |  |
| B6 | 210 nM | -6.68 log M |  |  |  |
| B7 |  |  |  |  | binds |
| B8 |  |  |  |  | binds |
